According to patent US20240316102A1:

Target: CD38 on expanded NK cells (g-NK or cNK) (human) (UniProt P28907)
Experiment: cell-based or functional assay

## daratumumab (antibody)
  daratumumab-induced fratricide of expanded NK cells (4 h, 1 µg/mL, PI staining, 3-color flow cytometry) (times lower (g-NK versus cNK)): 13
